B1: HMOX1 (parent)
chain: YHIYVALEEEIERNKESPVFAPVY

Variants of: B1
Test: protein stability index of a GFP-peptide fusion (GPS, HEK-293T) (PSI 1-6); higher = more stable
Conditions: c terminus: a fixed tail appended
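Further: lentivirally expressed fusions sorted by FACS into six bins by GFP to DsRed ratio, PSI derived from sequencing read proportions per bin multiplied by bin number.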

Variant	protein stability index
YHIHVALEEEIERNKESPVFAPVY	2.01
YHIGVALEEEIERNKESPVFAPVY	1.64
YHIRVALEEEIERNKESPVFAPVY	1.57
YHIQVALEEEIERNKESPVFAPVY	2.35
YHIDVALEEEIERNKESPVFAPVY	2.29
YHILVALEEEIERNKESPVFAPVY	2.26
YHIPVALEEEIERNKESPVFAPVY	1.78
YHITVALEEEIERNKESPVFAPVY	1.59
YHIFVALEEEIERNKESPVFAPVY	4.8
YHINVALEEEIERNKESPVFAPVY	2.03
YHISVALEEEIERNKESPVFAPVY	1.58
YHIIVALEEEIERNKESPVFAPVY	1.49
YHIYVALEYEIERNKESPVFAPVY	1.98
YHIYVALENEIERNKESPVFAPVY	2.26
YHIYVALELEIERNKESPVFAPVY	2.57
YHIYVALEFEIERNKESPVFAPVY	2.43
YHIYVALETEIERNKESPVFAPVY	1.7
YHIYVALEHEIERNKESPVFAPVY	1.58
YHIYVALEDEIERNKESPVFAPVY	1.88
YHIYVALEPEIERNKESPVFAPVY	2.6
YHIYVALEIEIERNKESPVFAPVY	1.62
YHIYVALEGEIERNKESPVFAPVY	2.06
YHIYVALEMEIERNKESPVFAPVY	1.72
YHIYVALEKEIERNKESPVFAPVY	2.14

Variant	protein stability index
YHIYVALEQEIERNKESPVFAPVY	1.75
YHIYVALEREIERNKESPVFAPVY	2.02
YHIYVALESEIERNKESPVFAPVY	1.87
YHIYVALEAEIERNKESPVFAPVY	1.91
YHIYVALEEEIVRNKESPVFAPVY	1.93
YHIYVALEEEIPRNKESPVFAPVY	3.7
YHIYVALEEEIWRNKESPVFAPVY	2.27
YHIYVALEEEITRNKESPVFAPVY	1.85
YHIYVALEEEIARNKESPVFAPVY	1.68
YHIYVALEEEINRNKESPVFAPVY	2.29
YHIYVALEEEIQRNKESPVFAPVY	1.95
YHIYVALEEEIHRNKESPVFAPVY	1.58
YHIYVALEEEIIRNKESPVFAPVY	1.45
YHIYVALEEEIFRNKESPVFAPVY	2.35
YHIYVALEEEIGRNKESPVFAPVY	3.07
YHIYVALEEEIMRNKESPVFAPVY	1.2
YHIYVALEEEIKRNKESPVFAPVY	1.94
YHIYVALEEEILRNKESPVFAPVY	1.83
YHIYVALEEEIRRNKESPVFAPVY	1.62
YHIYVALEEEICRNKESPVFAPVY	1.52
YHIYVALEEEISRNKESPVFAPVY	2.42
YHIYVALEEEIDRNKESPVFAPVY	1.43
YHIYVALEEEMERNKESPVFAPVY	2.16
YHIYVALEEESERNKESPVFAPVY	2.15

Variant	protein stability index
YHIYVALEEEKERNKESPVFAPVY	2.05
YHIYVALEEENERNKESPVFAPVY	1.48
YHIYVALEEEHERNKESPVFAPVY	2.01
YHIYVALEEEYERNKESPVFAPVY	2.21
YHIYVALEEEGERNKESPVFAPVY	2.24
YHIYVALEEECERNKESPVFAPVY	2.46
YHIYVALEEEFERNKESPVFAPVY	1.6
YHIYVALEEEEERNKESPVFAPVY	1.89
YHIYVALEEEWERNKESPVFAPVY	2.18
YHIYVALEEEQERNKESPVFAPVY	2.01
YHIYVALEEELERNKESPVFAPVY	1.57
YHIYVALEEEDERNKESPVFAPVY	1.58
YHIYVALEEEPERNKESPVFAPVY	2.07
YHIYVALEEEVERNKESPVFAPVY	1.84
YHIYVALEEERERNKESPVFAPVY	1.56
YHIYVALEEEAERNKESPVFAPVY	1.31
YHIYVALEEETERNKESPVFAPVY	1.54
YHIYVALEEEIERCKESPVFAPVY	1.32
YHIYVALEEEIERKKESPVFAPVY	2.12
YHIYVALEEEIERMKESPVFAPVY	2.31
YHIYVALEEEIERIKESPVFAPVY	1.26
YHIYVALEEEIERLKESPVFAPVY	2.05
YHIYVALEEEIERGKESPVFAPVY	1.98
YHIYVALEEEIERDKESPVFAPVY	2.06

Variant	protein stability index
YHIYVALEEEIEREKESPVFAPVY	1.98
YHIYVALEEEIERHKESPVFAPVY	2.14
YHIYVALEEEIERFKESPVFAPVY	2.15
YHIYVALEEEIERAKESPVFAPVY	1.72
YHIYVALEEEIEQNKESPVFAPVY	1.54
YHIYVALEEEIEMNKESPVFAPVY	1.4
YHIYVALEEEIEGNKESPVFAPVY	1.55
YHIYVALEEEIECNKESPVFAPVY	1.39
YHIYVALEEEIESNKESPVFAPVY	2.23
YHIYVALEEEIETNKESPVFAPVY	1.19
YHIYVALEEEIEPNKESPVFAPVY	2.11
YHIYVALEEEIENNKESPVFAPVY	1.23
YHIYVALEEEIEFNKESPVFAPVY	2.97
YHIYVALEEEIEVNKESPVFAPVY	2.02
YHIYVALEEEIEDNKESPVFAPVY	1.52
YHIYVALEEEIEINKESPVFAPVY	2.02
YHIYVALEEEIELNKESPVFAPVY	1.22
YHIYVALEEEIEKNKESPVFAPVY	2.14
YHIYVALEEEIEHNKESPVFAPVY	1.75
YHIYVALEEEIEENKESPVFAPVY	1.34
YHIYVALEEEIEWNKESPVFAPVY	2.25
YHIYVALEEEIEANKESPVFAPVY	1.34

— the supplement of paper PMC10567573
